Source: the supplement of paper PMC10567573

B1: EPB41L3 (parent)
chain: FRFAPNHTKELEDKVIELHKSHRG
B2: TRIM43 (parent)
chain: NRFRVEISFHFEVTNHNIRLFEDV

Variants of: B1
Test: protein stability index of a GFP-peptide fusion (GPS, HEK-293T) (PSI 1-6); higher = more stable
Conditions: c terminus: a fixed tail appended
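Further: lentivirally expressed fusions sorted by FACS into six bins by GFP to DsRed ratio, PSI derived from sequencing read proportions per bin multiplied by bin number.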

Protein stability index: each site, then its substitutions
G24: A 1.93 | R 2.05 | W 1.84 | F 2.31 | H 1.97 | L 2.02 | P 2.19 | S 1.94 | T 1.73 | I 2.04 | E 2.34 | K 2.06 | Y 1.56 | N 2.45 | M 2.53 | V 1.74 | D 1.75 | C 1.36 | Q 2.74
K14: G 2.48 | Y 2.44 | Q 1.56 | M 2.01 | F 1.8 | T 2.31 | A 2.34 | D 2.32 | N 2.25 | S 1.97 | P 1.86 | V 2.2 | C 1.89 | H 2.74 | E 2.53 | W 1.96 | I 2.66 | R 1.97 | L 1.78
V15: A 2.38 | G 2.55 | Q 2.54 | F 2.46 | E 2.23 | R 1.95 | H 2.38 | D 2.92 | S 2.44 | L 2.69 | Y 1.99 | W 1.93 | K 2.19 | M 2.87 | I 2.75 | T 2.47 | C 2.24 | P 2.33 | N 2.27
L18: Y 1.36 | G 2.02 | D 3.17 | M 3.06 | V 1.93 | F 1.73 | S 2.51 | E 2.43 | R 2.75 | N 2.01 | K 2.6 | A 3.07 | P 1.89 | C 2.9 | T 3.79 | I 2.35 | Q 2.53 | H 1.82 | W 1.78
E10: Y 1.97 | L 1.9 | F 1.22 | Q 1.68 | G 2.04 | M 1.69 | C 1.46 | R 1.95 | A 1.97 | T 1.84 | D 1.9 | K 2.59 | W 1.21 | P 1.63 | S 2.07 | N 1.41 | I 2.07 | V 1.73 | H 1.81
K20: I 2.12 | W 1.54 | F 1.55 | S 1.67 | P 2.64 | E 2.84 | C 2.09 | T 2.12 | N 2.57 | Y 2.95 | Q 1.29 | M 1.81 | L 2.81 | D 1.96 | V 2.71 | R 1.39 | H 2.44 | G 2.22 | A 2.29
E12: T 1.36 | H 2.34 | M 1.75 | F 2.17 | C 1.83 | G 2.33 | D 1.83 | W 2.97 | S 2.41 | R 1.56 | N 1.74 | V 1.45 | Q 2.09 | I 1.27 | A 1.99 | K 1.96 | Y 1.22 | P 2.34 | L 1.97
L11: K 2.53 | T 2.21 | Q 2.25 | Y 2.05 | A 1.54 | E 1.97 | V 2.25 | I 2.46 | G 2.89 | W 1.99 | C 2.18 | H 2.29 | S 1.72 | R 1.92 | N 1.65 | F 2.48 | M 1.83 | D 2.53 | P 1.87
R23: H 1.92 | P 1.93 | E 3.15 | C 2.4 | K 2.37 | F 1.5 | Q 2.87 | S 1.85 | W 1.54 | V 1.83 | Y 2.78 | T 2.07 | I 1.72 | L 1.92 | G 3.6 | A 2.07 | D 2.84 | M 1.73 | N 2
H19: T 1.81 | F 1.95 | W 1.53 | V 1.89 | A 2.11 | S 2.11 | K 1.99 | Y 1.88 | E 2.72 | G 1.88 | D 2.07 | L 2.12 | C 2.03 | P 2.72 | M 2.05 | R 2.19 | Q 2.66 | I 1.83
H22: F 1.92 | V 1.67 | R 1.68 | C 1.95 | P 2.17 | L 1.63 | T 1.76 | I 1.68 | E 2.52 | S 2.4 | M 1.55 | W 1.65 | N 2.34 | Q 2.01 | D 2.48 | Y 2.96 | G 1.91 | K 1.4 | A 1.98
K9: Y 1.99 | Q 2.11 | W 2.34 | E 2.21 | C 2.44 | I 2.56 | H 2.06 | S 2.88 | D 1.82 | G 2.04 | R 1.7 | N 2.39 | P 2.15 | V 2.24 | M 1.77 | A 1.71 | L 1.47 | F 2.14 | T 1.37
D13: T 1.67 | Y 1.95 | R 2.77 | F 1.52 | M 1.9 | H 1.89 | C 2.65 | A 1.82 | K 1.86 | V 1 | Q 3.39 | G 3.4 | I 2.9 | S 2.14 | L 2.2 | E 2.8 | P 1.78 | N 2.79
E17: T 1.86 | I 2.21 | C 1.95 | S 2.12 | P 2.43 | W 2.18 | N 2.29 | Q 1.55 | F 2.34 | G 1.76 | V 2.55 | A 1.74 | H 2.04 | K 1.72 | Y 2.66 | M 2.5 | L 1.67 | D 2.18
S21: M 2.14 | T 2.47 | Q 2.59 | H 1.71 | I 2.25 | G 2.42 | A 2.47 | R 2.1 | C 1.78 | L 1.83 | W 1.41 | E 2.9 | K 1.74 | D 2.56 | V 2.2 | F 1.78 | Y 2.4 | N 2.88
I16: Y 2.43 | S 2.11 | A 2.46 | R 1.81 | Q 2.12 | V 2.71 | F 1.77 | L 2.01 | T 2.27 | C 2.14 | H 2.09 | M 2.1 | K 2.1 | D 3.22 | E 2.95 | G 1.98 | P 2.76 | W 2.13 | N 2.42

Variants of: B2
Test: as above
Conditions: c terminus: a fixed tail appended

Protein stability index, by site and new letter:
N1: T 1.62 | R 2.37 | D 3.89 | Q 3.07 | C 3.11 | L 3.45
R4: T 2.08 | I 3.43 | A 3.36 | E 3.4 | N 2.75 | G 3.21 | K 2.96 | L 2.88 | C 2.91
V5: A 3.44
R2: W 2.21 | D 2.46 | I 3.39 | Y 2.89 | Q 3.46 | P 2.38 | V 1.92 | S 1.5
F3: M 2.92 | N 3.43 | C 2.54 | E 1.53 | I 2.35 | K 2.36 | D 3.13 | V 2.2 | A 3.07 | T 2.7
